Publication PMC5491494

Target: hnRNPA1, endogenous, P09651
Experiment: cross-linking; DSG cross-linking, sample not named in the text (Supplementary Fig. 2a); nucleo-cytoplasmic fractionation; immunoblot, 4–12% denaturing polyacrylamide gels
Conditions: remark: other sources report otherwise

B1: hnRNPA1, endogenous, P09651 1-372 (natural protein)
chain: MSKSESPKEPEQLRKLFIGGLSFETTDESLRSHFEQWGTLTDCVVMRDPNTKRSRGFGFVTYATVEEVDAAMNARPHKVDGRVVEPKRAVSREDSQRPGAHLTVKKIFVGGIKEDTEEHHLRDYFEQYGKIEVIEIMTDRGSGKKRGFAFVTFDDHDSVDKIVIQKYHTVNGHNCEVRKALSKQEMASASSSQRGRSGSGNFGGGRGGGFGGNDNFGRGGNFSGRGGFGGSRGGGGYGGSGDGYNGFGNDGGYGGGGPGYSGGSRGYGSGGQGYGNQGSGYGGSGSYDSYNNGGGGGFGGGSGSNFGGGGSYNDFGNYNNQSSNFGPMKGGNFGGRSSGPYGGGGQYFAKPRNQGGYGGSSSSSSYGSGRRF
Work on B1 yielded a stoichiometry N of 2.
